B1: PHLPP: PH domain Leucine rich repeat Protein Phosphatase; HA-PHLPP-1α construct transfected into LN229 glioblastoma cells (SEQ ID NO: 2) (protein, listed as Homo sapiens)
chain: MDSEIGCLIRFYAGKPHSTGSSERIQLSGMYNVRKGKMQLPVNRWTRRQVILCGTCLIVSSVKDSLTGKMHVLPLIGGKVEEVKKHQHCLAFSSSGPQSQTYYICFDTFTEYLRWLRQVSKVASQRISSVDLSCCSLEHLPANLFYSQDLTHLNLKQNFLRQNPSLPAARGLNELQRFTKLKSLNLSNNHLGDFPLAVCSIPTLAELNVSCNALRSVPAAVGVMHNLQTFLLDGNFLQSLPAELENMKQLSYLGLSFNEFTDIPEVLEKLTAVDKLCMSGNCVETLRLQALRKMPHIKHVDLRLNVIRKLIADEVDFLQHVTQLDLRDNKLGDLDAMIFNNIEVLHCERNQLVTLDICGYFLKALYASSNELVQLDVYPVPNYLSYMDVSRNRLENVPEWVCESRKLEVLDIGHNQICELPARLFCNSSLRKLLAGHNQLARLPERLERTSVEVLDVQHNQLLELPPNLLMKADSLRFLNASANKLESLPPATLSEETNSILQELYLTNNSLTDKCVPLLTGHPHLKILHMAYNRLQSFPASKMAKLEELEEIDLSGNKLKAIPTTIMNCRRMHTVIAHSNCIEVFPEVMQLPEIKCVDLSCNELSEVTLPENLPPKLQELDLTGNPRLVLDHKTLELLNNIRCFKIDQPSTGDASGAPAVWSHGYTEASGVKNKLCVAALSVNNFCDNREALYGVFDGDRNVEVPYLLQCTMSDILAEELQKTKNEEEYMVNTFIVMQRKLGTAGQKLGGAAVLCHIKHDPVDPGGSFTLTSANVGKCQTVLCRNGKPLPLSRSYIMSCEEELKRIKQHKAIITEDGKVNGVTESTRILGYTFLHPSVVPRPHVQSVLLTPQDEFFILGSKGLWDSLSVEEAVEAVRNVPDALAAAKKLCTLAQSYGCHDSISAVVVQLSVTEDSFCCCELSAGGAVPPPSPGIFPPSVNMVIKDRPSDGLGVPSSSSGMASEISSELSTSEMSSEVGSTASDEPPPGALSENSPAYPSEQRCMLHPICLSNSFQRQLSSATFSSAFSDNGLDSDDEEPIEGVFTNGSRVEVEVDIHCSRAKEKEKQQHLLQVPAEASDEGIVISANEDEPGLPRKADFSAVGTIGRRRANGSVAPQERSHNVIEVATDAPLRKPGGYFAAPAQPDPDDQFIIPPELEEEVKEIMKHHQEQQQQQQPPPPPQLQPQLPRHTQLDQLPDYYDTPL
modifications: HA tag
B2: PHLPP2 PP2C domain: GST-tagged PP2C domain of PHLPP2 (residues 780-1030) expressed in bacteria (protein)
chain: TSTFWSHGLAEMAGQRNKLCVSALAMDSFAEGVGAVYGMFDGDRNEELPRLLQCTMADVLLEEVQQSTNDTVFMANTFLVSHRKLGMAGQKLGSSALLCYIRPDTADPASSFSLTVANVGTCQAVLCRGGKPVPLSKVFSLEQDPEEAQRVKDQKAIITEDNKVNGVTCCTRMLGCTYLYPWILPKPHISSTPLTIQDELLILGNKALWEHLSYTEAVNAVRHVQDPLAAAKKLCTLAQSYGCQDNVGAMV
modifications: left off: a dimerising Fc or GST
notes: GST-tagged PP2C domain of PHLPP2 (residues 780-1030) expressed in bacteria

Legend:
LN229 cells [1] = experiment: growth rate of glioblastoma cells transfected with PHLPP (viable cells in G418 media); type: cell-based, human; settings: glioblastoma cell line wild-type in PTEN
Description: (§1) LN229 cells were transfected with vector, HA-PHLPP or HA-ΔC. Approximately 30 hours post-transfection, the cells were switched to selection media (DMEM, 10% FBS, 1% penicillin/streptomycin and 800 μg/ml G418). The viable cells were counted after 7 days in selection media. The number of viable cells reflects the effect of PHLPP on cell proliferation. The G418 resistant stable cells were propagated and expanded for an additional 2-3 passages to obtain the number of cells needed for mice injection. For subcutaneous inoculation, 3×10^6 or 5×10^6 cells were injected into 4- to 5-week old female nude mice of BALB/c background. The size of tumors was measured once a week with a caliper, and tumor volumes were defined as (longest diameter)×(shortest diameter)^2×0.5. Tumors were excised from individual mice and flash frozen in liquid N2. The tumor samples were homogenized in buffer A, and detergent-solubilized lysates were subjected to SDS-PAGE and Western blotting analysis.

LN229 cells [2] = experiment: tumorigenicity of subcutaneously injected glioblastoma cells transfected with PHLPP; type: in vivo, nude mice of BALB/c background; settings: subcutaneous injection
Description: as §1

Akt = target: T1, Akt (Homo sapiens, UniProt P31749); experiment: phosphatase assay with purified GST-tagged PHLPP2 PP2C domain and pure phosphorylated Akt; type: biochemical; settings: in 5 minutes, pure
T1 construct: 6His; made in house; host or cells: Akt1: baculovirus-infected Sf21 cells; HA-PHLPP2: transfected 293T cells, immunoprecipitated with HA antibody
T1 sequence (P31749 whole entry, the tested form may be a part): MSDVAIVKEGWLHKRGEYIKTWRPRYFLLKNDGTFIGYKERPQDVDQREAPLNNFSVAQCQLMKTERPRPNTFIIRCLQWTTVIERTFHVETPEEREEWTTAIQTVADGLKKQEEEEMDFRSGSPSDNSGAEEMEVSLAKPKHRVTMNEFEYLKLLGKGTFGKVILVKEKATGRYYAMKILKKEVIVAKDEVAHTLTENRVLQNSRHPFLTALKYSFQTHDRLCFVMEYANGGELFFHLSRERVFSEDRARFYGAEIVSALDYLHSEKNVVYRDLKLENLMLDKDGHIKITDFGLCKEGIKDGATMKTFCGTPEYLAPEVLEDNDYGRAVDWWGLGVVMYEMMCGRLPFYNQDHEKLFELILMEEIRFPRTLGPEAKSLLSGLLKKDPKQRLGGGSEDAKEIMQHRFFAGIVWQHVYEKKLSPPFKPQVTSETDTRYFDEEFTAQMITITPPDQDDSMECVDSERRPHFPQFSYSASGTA
Description: A GST-fusion protein of PHLPP-1α-PP2C was expressed in BL21 (DE3) and purified using glutathione-Sepharose. The GST-PP2C proteins were eluted from the beads in PBS containing 10 mM glutathione and 1 mM DTT, and dialyzed against 50 mM Tris (pH 7.4) and 1 mM DTT. His-tagged Akt was expressed and purified from baculovirus-infected Sf21 cells. Briefly, Sf21 cells were maintained in SF-900 II media (Invitrogen) and infected with baculovirus encoding His-Akt for 3 days. To obtain maximally phosphorylated Akt as substrate, the infected cells were treated with 10% FBS and calyculin A (100 nM) for 15 minutes prior to lysis. The infected cells were lysed in PBS containing 1% Triton X-100 and 10 mM imidazole, and His-Akt proteins were purified using Ni-NTA beads (Qiagen). The dephosphorylation reactions were carried out in a reaction buffer containing 50 mM Tris (pH 7.4), 1 mM DTT and 5 mM MnCl2 at 30° C. for 0-30 minutes. […]
GST-PP2C was expressed in BL21 bacterial cells; phosphatase assays were performed using the purified GST-PP2C construct conjugated to glutathione-sepharose and pure Akt as a substrate as described above. The activity of full length HA-PHLPP2 was assessed by expressing and immunoprecipitating PHLPP2 from 293T or H157 cell lysates. […]

Row | Molecule | decrease of the growth rate (LN229 cells [1]) | ability of the cells to induce tumors (LN229 cells [2]) | dephosphorylation of Ser 473 (P473) (Akt) | dephosphorylation of Thr 308 (P308) (Akt)
1 | B1 | approximately 50% | dramatically reduces | – | –
2 | B2 | – | – | 82+6% | 70+2%

— patent publication US20080108569A1, “Compositions and Methods for Treating Diseases Associated With Phlpp” (The Regents of the University of California, priority 2005, published 2008)
